Laboratory results reported in the nanobody polyreactivity screen of Harvey et al. (2022).

Assay: yeast display, Sf9 membrane polyspecificity reagent, FACS + sequencing; frameworks hold sequencing errors
Outline: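 Sorting gates, low and high (top ~1%), were placed on anti-HA fluorescence to track expression and on streptavidin fluorescence to track reagent binding. A clone's polyreactivity label is taken from the gate it came out of. The reagent was 10% biotinylated, detergent-solubilized Sf9 membrane, applied for 1 hour at 4 °C to galactose-induced yeast display cells.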

Sequence	polyreactivity (PSR sort gate)
QVQHVESGGGLVQAGGSLRLICAASGITFYFNAMGWYRQAPGKERELVAAISRPGGSTYYADSVKGRFTISRDNAKNTVYLQMNSLKPEDTAVYYCAAEAYFELSGGGLEYGYDYWGQGTQVTVSS	high polyreactivity
QVQLVESGGGLVQAGGSLRLSCAASGRIFRRYTMGWYRQAPGKERELVAAISSGGSTYYADSVKGRFTISRDNAKNTVYLQMNSLKPEDTAVYYCNADSRSQPYYPEFDYWGQGTQVTVSS	low polyreactivity
QVQLVESGGGLVQAGGSLRLSCAASGFIFFTYAMGWYRQAPGKVRELVAAITSRGGRTYYADSVKGRFTISRDNAKNTVYLQMNILKPEDTAVYYCAVDPVRRYRYDYWGQGTQVTVSS	low polyreactivity
QVQLVESGGGLVQAGGSLRLSCAASGRTFSHYAMGWYRQAPGKVRELVADISWNGGRTYYADSVKGRFTISRDNAKNTVYLQMNSLKPEDTAVYYCAKVRYWAWSYEYWGQGTQVTVSS	high polyreactivity
QVQLQESGGGLVQAGGDLRLSCAASGNIFRDYIMGWNPQAPGKEREFVAGIDRGANTNYADSVKGRFTISRDNAKNTVYLQMNSLKPEDTAVYYCAVHTAIVPDFIYWGQGTQVTVSS	low polyreactivity
QVQLVESGGGLVQAGGSLRFSCAASGRIFYANAMGWYRQAPGKERELVAAISSGGSTYYADSVKGRFTISRDNAKNTVFLQMNSLKPEDTAVYYCAVYTHKKVRPEYVYWGQGTQVTVSS	low polyreactivity
QVQLVESGGGLVQAGGSLRLSCAASGSIFTGNAMGWYRQAPGKERELVAAITQRGGRTYYADSVKGRFTISRDNAKNTVYLQMNSLKPKIPAVYYCNAKWTTLFDYWGQGTQVTVSS	high polyreactivity
QVQLVESGGGLVQAGGSLRLSCAASGYIFGSYVMGGYRQAPGKERELVAAITRIGASTYYADSVKGRFTISRDNAKNTVYLQMNSLKPEDTAVYYCATDQGGYYENDYWGQGTQVTVSS	low polyreactivity
QVQHVESGGGLVQAGGSLRLSCAVSGRTFYYYAMGWYRQAPGKERELVAAISSSGGSTYYADSVKGRFTISRDNAKNTVYLQMNSLKPEDTAVYYCAAAARKVSVSRYLYYYWGQGTQVTVSS	high polyreactivity
QVQLVDSGGGLVQAGGSLRLTCAASGRIFCDNAMGWYRQEPGKERELVAAISDSVVITYYADSVKGRFTISRDNAKNTVYLQMNSLKPEDTAVYYCAADKRGTVYLSSFWMDYWGQGTQVTVSS	low polyreactivity
QVQLVESGGGLVQAGGSLRLSCAASGSTFSYNAMGWYRQAPGKERELVAAISGSGGTTYYSDSVKGRFTISRDNAKNTVYLQMNSLKPEDTAVYYCAARPFRSWRYDYWGQGTQVTVSS	low polyreactivity
QVQLVESGGGLVQAGGSLRLSCAASGFIFWSYAMGWYRQAPGKERELVAAINTSGDSTYYADSVKGRFTISRDNAKYTVYLQMNSLKPEDTAVYSCAAKSSTRGDYWGQGTQVTVSS	low polyreactivity
QVQLVESGGGLVQAGGSLRLSCAASGRTFWVYAMGWYRQAPGKERELVAAIRRGGITNYADSVKGRFTISRDNAKNTVYLQMNSLKPEDTAVYYCAALGLWFLQFDYWGQGTQVTVSS	low polyreactivity
QVQLVESGGGLVQAGGSLRLSCAASGSSFEGYVLGWYRQAPGKERELVATISFSGGSTYYADSVMGRFTISRDNAKNTVYLQMNSLKPVETAVYFSGASVRYKFYSVVSVRSEYWGQGTQVTVST	low polyreactivity
QVQLVESGGGLVQAGGSLRLSCAASGSIFESYVMGWYRQAPGKERELVAAISSGGSTYYADSVKGRFTISRDNAKNTVYLQMNSLKPEDTAVYYCNTEVVRFKYDYWGQGTQVTVSS	low polyreactivity
QVQLVESGGGLVQAGRSLRLSCAASGYIIYPNAMGWYRQAPGKERELVAAITSGGSTTYADSVKGRFTISRDNAKNTVYVQMNCLKPEDSAVYYCAARFVLWSRTYYSWGQGTQVTVSS	high polyreactivity
QVQLVESGGGLVQAGGSLRLSCAASGRTVYSYAMGWYRQAPGKERELVAAISYTGASTFYADSVKGRFTISRDNAKNTVYLQMNSLKPEDTAVYYCAAESQPSYGETDEYWGQGTQVTVSS	high polyreactivity
QVQLVESGGGLVQAGGSLRLSCAASGRTIRGNARGWYIQAPGKERELVAVNTASGSTTYADSVKGRFTISRDNAKNTVYLQMNSLKSEDTAVYYCAKYVPWYTLWLGGTDRDYWGQGTQVTVSS	low polyreactivity
QVQLVESGGGLVQAGGSLRLSCAASGSTLGHNAMGWYRQAPGKERELVAGISWRGGSTYYADSVKGRFTISRDNAKNTVYLQMNSLKPEDTAVYYCAAVSYPAVYGFDYWGPGTQVTVSS	high polyreactivity
QVQLVESGGGLVQAGGSLRLSCAASGLIFSEYAMGRSRQAPWKERELVAAIRSDGGSTYYADSVKGRFTISRDNAKNSVYLQMNSLKPEDTAVYYCNAPYRRSAKFRRYGYDYWGQGTQVTVSS	high polyreactivity
QFQLVESGGGLVQAGGSLRLSCAASGFTFDNYVMGWYRQAPGKERELVAAISKSGTSTYYADSVKGRFTISRDNAKNTVYLQMNSLKPEDTAVYYCAAALPGYGDYYYWGQGTQVTVSS	high polyreactivity

Sequence	polyreactivity (PSR sort gate)
QVQLVESGGGLVQAGGSLRLSCAASGSIFADYAMGWYRQAPGKERELVAAITYTDDRTYYADSVKGRFTISRDNAKNTVYLQMNSLKPEDTAVYYCNRVFTCRYGYRYEYWGQGSQVTVSS	high polyreactivity
QVQLVESGGGLVQAGGSLRLSCAASGRIFDVNDMGCYRQAPGKERELVAAITYSGTDTYYADSVKGRITISRDNAKNTVYLQMNSLKPEDTAVYYCAAEFTGWEYIGRDYWGQGTQVTVSS	low polyreactivity
QVQLVESGGGLVQAGGSLRLSCAASGFTFQYYAMGCYRPAPGKERELVATISSTDNTYYADSVKGRFTISRDNAKNTVYLQMFSLKPEDTAVYYCNAAYVYGYQARGGYWGQGTQVTVSS	high polyreactivity
QVQLVESGGGLVQAGGSLRLSCAASGSNLGNNDMGWYRQAPGKERQLVAAISRSDVSTFYADSVKGRFTISRDNAKNTVYLQMNSLKPEDTAVSSCAARTGRGDRTRRYYYWGQGTQVTVSS	high polyreactivity
QVQLVESGGGLVQAGGSLRLSCAASGSTFRVYAMGWYRQAPGKEREFVAAITGSDGSTYYADSVKGRFTISRDNAKNTVYLQMNSLKPEDTAVYYCAADYYLQNYETGYGYWGQGTQVTVSS	low polyreactivity
QVQLVESGGGLVQAGGSLRLSCAASGRTIYYYVMGWYRQAPGKERQLVAAISASGGSTRYADSVKGRFTISRDNAKNTVYLQMNSLKPEDTAVYYCAASRRYGGYRFDYWGQGTQVTVSS	high polyreactivity
QVQLVDSGGGLVQAGGSLRISCAASGRTFYWYAMGWSRQAPGKEREFVAAISWNVGSTYYADSVKGRFTISRDHAKNTVYLQMNSLKPEDTAVYYCAAELGYPYSTYADWYYYWGQGTQVTVSS	high polyreactivity
QVQLVESGGGLVQAGGSLRLSCAASGNTFSVYAMGWYRQAPGKERELVAGITTSGGSTYYADSVKGRFTISRDNAKNTVYLQMNSLKPEDTAVYYCATDISTSYYYQYSSFYQYDSWGQGTQVTVSS	low polyreactivity
QVQLVESGGGLVQAGGSLRLSCAASGRTFVQYAMGWYRQAPGKERELVARITSVRSTNYADSVKGRFTISRDNAKNTVYLQLNSLKPEDTAVFYCAAPTVVYRSYYYWGQGTQVTVSS	high polyreactivity
QVQLVESGGGLVQAGGSLRLSCAASGSTLAPYVMGWYSQAPGKERELVAVISTRTGRTYYADSVKGRFTISRDNAKNTVSLQMNSLKPEDTAVYYCNAYPHAYTGSTREGDYWGQGTQVTVSS	high polyreactivity
QVQLVESGGGLVQAGGSLRLSCAASGRIFRYYAMGWYRQAPGKERELVAAISRGGSTNYADSVKGRFTISRDNAKNTVYLQMNSLKPEDTAVYYCAAVYHSRVWYGYDSKFEYWGQGTQVTVSS	high polyreactivity
QVLLVEAGGGLVHAGGSLRLSCAASGLIFGYYAMRWYRQAPWKERELVAAISFSGGSSYYADSVKGRFTISRDNAKNTDSLQMNSLKPEDTAVYYCAADLDGSSEYEYWGQGTQVNVSS	low polyreactivity
QVQLVESGGGLVQAGGSLRLSCAASGNTFNRYAMGWYRQAPGKESELVATISYRGGSTSYADSVKGRFTISRDNAKNTVYLQMNSLKPEDTAVYYCATEEGYVLYKYYSWGQGTQVTVSS	low polyreactivity
QVQLVESGGGLVQAGRSLRLICAASGSTFYVNAMGWYRQAPGKEREFVAAIRWPGGSTYYADSVKWRFTISRDNAKNTFYVQMNSLKPEDTAVFYCAARIKYRYVWGQGTQVTVSS	low polyreactivity
QVQLVESGGGLVQAGGSLRLSCAASGSTYYENTMGWYRQAPGKEREMVAAISFRGGSTYYADSVKGRFTISRDNAKNTVYLQMNSLKPDDTAVYYCAKEYYTVRLYDYWGQGTQGTVSS	low polyreactivity
QVQLVESGGGLVQAGGSLRLSCAASGYILHRNAMGWYRQAPGKERELVAVISWGGTSTYYADSVKGRFTISRDNAKNTVYLLMNSLKPEDTAVYYCNAKGWYYKYDYWGQGTQVNVSS	high polyreactivity
QDQHVESGGGLVQAGGSLRLSCADSGIIFYPNAMGWYRQAPGKERELVAAITGSGGSTYYADSVKGRFTISRDNAKYTVYIQMNSLKPEDTAVYYCATRYHRSDPSRDYWGQGTQVTVSS	low polyreactivity
QVQLVESGGGLVQAGGSLRLSCAASGFIFYYYAMGWYRQAPGKERELVAAISSGDDTTYADSVKGRFTISRDNAKNTVYLKMNSLKPEDTAVYYCNSERSVKQQGPYGYWGQGTQVTVSS	low polyreactivity
QDQLVESGGGLVQAGGSLRLSCAASGIIFRNYAMGWYRQAPGKERELVATIRYRGGRTYADSVKGRFTISRDNAKNTVYLQMNSLKPEDTAVYYCNARRLSDYGDYDYWGQGTQVTVSS	high polyreactivity
KGHLEESGGGLVQAGGRLRLSCPASGNTFGDYAMGRYRQAPGKERELVAAISRSGGSTSYADSVKGRFTISRDNAKNTFYLQMNSLKPVDTAVYYCAAYWQRFGYDYWGQGTQVTVSS	low polyreactivity
